Data: patent US20240182536A1 (MURAL ONCOLOGY, published 2024)

T1: IL-18 receptor (IL-18Rα and IL-18Rβ) (UniProt Q13478 19-541; O95256 20-599, limits assumed)
T1 sequence (looked up) 1: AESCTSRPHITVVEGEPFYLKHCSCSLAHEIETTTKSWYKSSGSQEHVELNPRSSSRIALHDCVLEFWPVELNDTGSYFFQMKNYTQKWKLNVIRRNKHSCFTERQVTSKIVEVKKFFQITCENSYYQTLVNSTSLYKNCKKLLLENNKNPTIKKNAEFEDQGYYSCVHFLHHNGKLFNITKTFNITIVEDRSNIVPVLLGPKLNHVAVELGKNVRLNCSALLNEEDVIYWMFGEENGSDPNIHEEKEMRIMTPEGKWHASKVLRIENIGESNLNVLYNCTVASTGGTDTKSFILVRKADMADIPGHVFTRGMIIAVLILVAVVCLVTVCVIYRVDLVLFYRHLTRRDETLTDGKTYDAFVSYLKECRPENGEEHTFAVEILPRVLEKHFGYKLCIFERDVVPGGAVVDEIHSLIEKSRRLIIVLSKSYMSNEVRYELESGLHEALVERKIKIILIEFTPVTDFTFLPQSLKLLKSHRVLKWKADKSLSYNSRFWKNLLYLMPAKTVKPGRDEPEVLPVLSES
T1 sequence (looked up) 2: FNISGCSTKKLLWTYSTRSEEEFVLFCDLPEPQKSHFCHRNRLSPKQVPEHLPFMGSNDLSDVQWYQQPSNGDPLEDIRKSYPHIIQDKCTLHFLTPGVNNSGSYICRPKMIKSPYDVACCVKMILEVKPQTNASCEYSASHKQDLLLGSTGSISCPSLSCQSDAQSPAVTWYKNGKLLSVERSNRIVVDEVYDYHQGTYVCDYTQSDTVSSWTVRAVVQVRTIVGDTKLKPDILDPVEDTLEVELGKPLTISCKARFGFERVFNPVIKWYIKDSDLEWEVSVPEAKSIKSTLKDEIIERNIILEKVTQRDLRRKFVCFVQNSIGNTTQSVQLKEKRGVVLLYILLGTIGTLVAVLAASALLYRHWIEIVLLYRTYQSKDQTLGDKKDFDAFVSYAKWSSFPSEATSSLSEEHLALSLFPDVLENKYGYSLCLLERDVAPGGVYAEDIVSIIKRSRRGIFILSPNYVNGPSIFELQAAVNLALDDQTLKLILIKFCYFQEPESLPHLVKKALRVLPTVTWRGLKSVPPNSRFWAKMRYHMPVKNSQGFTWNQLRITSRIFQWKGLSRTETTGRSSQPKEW

T2: human IL-18 binding protein (IL-18BP) (human, UniProt O95998 31-194)
T2 sequence (looked up): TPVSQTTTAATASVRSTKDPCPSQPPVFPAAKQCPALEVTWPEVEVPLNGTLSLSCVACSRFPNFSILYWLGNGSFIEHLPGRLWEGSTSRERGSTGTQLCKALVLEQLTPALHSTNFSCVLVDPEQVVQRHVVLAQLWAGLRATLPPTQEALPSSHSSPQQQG

T3: human IL-18 receptor alpha (IL-18Rα) (human, UniProt Q13478 19-329, limits assumed)
T3 construct: also called hu IL-18Ra; IL-18R alpha
T3 sequence (looked up): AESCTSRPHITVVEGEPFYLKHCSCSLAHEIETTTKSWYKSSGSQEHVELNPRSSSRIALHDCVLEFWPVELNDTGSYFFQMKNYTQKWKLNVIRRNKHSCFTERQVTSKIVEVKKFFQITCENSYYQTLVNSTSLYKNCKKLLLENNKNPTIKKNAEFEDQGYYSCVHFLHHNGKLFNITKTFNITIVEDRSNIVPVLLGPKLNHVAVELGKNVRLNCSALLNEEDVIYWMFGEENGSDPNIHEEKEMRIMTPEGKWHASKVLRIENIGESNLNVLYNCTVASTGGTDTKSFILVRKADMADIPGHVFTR

T4: human IL-18R alpha/beta pair (IL-18Rab) (human, UniProt Q13478 19-329; O95256 20-356)
T4 construct: also called hu IL-18Rab
T4 sequence (looked up) 1: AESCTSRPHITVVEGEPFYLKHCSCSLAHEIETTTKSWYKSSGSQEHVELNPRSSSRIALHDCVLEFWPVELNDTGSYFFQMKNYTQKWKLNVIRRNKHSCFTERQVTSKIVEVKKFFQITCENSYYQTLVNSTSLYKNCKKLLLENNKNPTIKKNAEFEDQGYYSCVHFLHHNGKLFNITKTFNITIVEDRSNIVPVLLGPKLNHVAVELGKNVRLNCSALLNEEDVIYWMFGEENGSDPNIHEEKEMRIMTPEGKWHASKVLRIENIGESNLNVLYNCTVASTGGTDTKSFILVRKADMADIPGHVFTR
T4 sequence (looked up) 2: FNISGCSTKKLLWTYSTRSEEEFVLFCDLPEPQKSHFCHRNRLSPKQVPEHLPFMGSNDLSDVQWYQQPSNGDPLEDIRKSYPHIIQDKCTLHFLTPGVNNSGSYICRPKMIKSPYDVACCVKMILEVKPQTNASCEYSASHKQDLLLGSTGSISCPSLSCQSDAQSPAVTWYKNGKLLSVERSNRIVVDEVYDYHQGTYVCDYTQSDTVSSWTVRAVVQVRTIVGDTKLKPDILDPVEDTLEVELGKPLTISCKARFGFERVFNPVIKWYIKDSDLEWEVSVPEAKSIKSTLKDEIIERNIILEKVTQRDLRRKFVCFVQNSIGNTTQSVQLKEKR

T5: IL-18 receptors on HEK-Blue IL-18 reporter cells (InvivoGen) (UniProt Q13478 19-541; O95256 20-599)
T5 sequence (looked up) 1: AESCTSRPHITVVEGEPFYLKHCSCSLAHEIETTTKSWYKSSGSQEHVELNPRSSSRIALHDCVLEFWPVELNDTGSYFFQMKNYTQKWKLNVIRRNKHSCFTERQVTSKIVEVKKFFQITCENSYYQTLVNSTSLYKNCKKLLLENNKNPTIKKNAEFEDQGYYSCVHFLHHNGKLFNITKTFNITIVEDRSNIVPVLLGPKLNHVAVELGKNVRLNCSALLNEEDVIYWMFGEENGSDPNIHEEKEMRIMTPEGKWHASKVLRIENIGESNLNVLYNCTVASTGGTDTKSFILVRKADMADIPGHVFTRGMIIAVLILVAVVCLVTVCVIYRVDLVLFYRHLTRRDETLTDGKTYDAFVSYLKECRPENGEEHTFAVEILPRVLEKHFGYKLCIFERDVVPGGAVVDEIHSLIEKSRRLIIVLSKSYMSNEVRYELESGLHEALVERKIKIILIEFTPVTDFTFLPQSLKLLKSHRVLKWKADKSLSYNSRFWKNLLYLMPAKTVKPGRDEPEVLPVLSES
T5 sequence (looked up) 2: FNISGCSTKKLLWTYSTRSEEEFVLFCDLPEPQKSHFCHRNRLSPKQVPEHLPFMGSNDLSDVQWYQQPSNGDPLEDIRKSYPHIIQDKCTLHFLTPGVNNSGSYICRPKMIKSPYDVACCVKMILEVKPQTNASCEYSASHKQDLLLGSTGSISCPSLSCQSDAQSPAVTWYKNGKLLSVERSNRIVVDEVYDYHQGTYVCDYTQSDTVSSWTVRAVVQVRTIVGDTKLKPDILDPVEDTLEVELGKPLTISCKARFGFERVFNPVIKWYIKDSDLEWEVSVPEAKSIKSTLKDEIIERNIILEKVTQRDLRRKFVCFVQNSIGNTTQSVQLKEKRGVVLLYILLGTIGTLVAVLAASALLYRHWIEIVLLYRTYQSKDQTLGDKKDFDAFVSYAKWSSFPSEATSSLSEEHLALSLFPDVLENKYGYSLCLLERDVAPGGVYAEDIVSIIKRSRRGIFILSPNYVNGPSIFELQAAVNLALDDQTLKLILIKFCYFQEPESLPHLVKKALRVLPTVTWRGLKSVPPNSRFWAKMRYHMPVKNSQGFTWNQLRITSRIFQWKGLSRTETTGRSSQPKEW


How the values were obtained:
[1] = target: T1, IL-18 receptor (IL-18Rα and IL-18Rβ); experiment: cell-based or functional assay
[2] = target: T2, human IL-18 binding protein (IL-18BP); experiment: cell-based or functional assay
[3] = target: T3, human IL-18 receptor alpha (IL-18Rα); experiment: Octet BLI
Description: (§1) Octet 96red instrument was used to determine affinities of IL18 proteins to BP or receptors. 5-10 ug/ml analyte proteins were used for loading on Sartorius tips (AHC or SA). […] 120-180 s loading, 200 s association and 800 s dissociation were used for kinetics. 3-7 data points were used to calculate affinities.

[4] = target: T2, human IL-18 binding protein (IL-18BP); experiment: Octet BLI
Description: as §1

[5] = target: T4, human IL-18R alpha/beta pair (IL-18Rab); experiment: Octet BLI
Description: as §1

[6] = target: T5, IL-18 receptors on HEK-Blue IL-18 …; experiment: cell-based or functional assay
[7] = target: T2, human IL-18 binding protein (IL-18BP); experiment: cell-based or functional assay; remark: listed apart in the source
[8] = target: T5, IL-18 receptors on HEK-Blue IL-18 …; experiment: cell-based or functional assay; remark: listed apart in the source
[9] = target: T2, human IL-18 binding protein (IL-18BP); experiment: cell-based or functional assay; remark: listed apart in the source

Row | Binder | EC50 pM, IFN gamma expression in PBMCs, no BP [1] | EC50 pM, IFN gamma expression in PBMCs, + 300 nM BP [2] | Kd [3] | Kd [4] | Kd [5] | HEK-Blue Activity Assay Ec50 (pM), -hu IL-18BP [6] | HEK-Blue Activity Assay Ec50 (pM), +300 nM hu IL-18BP [7] | HEK-Blue EC50 pM, NO BP (50 nM BP run) [8] | HEK-Blue EC50 pM, NO BP (300 nM BP run) [8] | Fold Change (BP/NO BP), 50 nM BP [9] | Fold Change (BP/NO BP), 300 nM BP [9] | HEK-Blue EC50 pM, +50 nM BP [9] | HEK-blue EC50 (pM) + 300 nM BP [9]
1 | IL-18 variant G3V, M60K, D157E (ligand) YFVKLESKLSVIRNLNDQVLFIDQGNRPLFEDMTDSDMRDNAPRTIFIISMYKDSQPRGKAVTISVKSEKISTLSSENKIISFKEMNPPDNIKDTKSDIIFFQRSVPGHDNKMQFESSSYEGYFLASEKERDLFKLILKKEDELGDRSIMFTVQNEE | 6.61 pM | 13 pM | 43 nM | 87 nM | 0.13 nM | 0.16 pM | 0.6 pM | 0.08 pM | 0.16 pM | 1.74 fold | 3.74 fold | 0.14 pM | 0.6 pM
2 | IL-18 variant G3T, M60K (ligand) YFTKLESKLSVIRNLNDQVLFIDQGNRPLFEDMTDSDMRDNAPRTIFIISMYKDSQPRGKAVTISVKSEKISTLSSENKIISFKEMNPPDNIKDTKSDIIFFQRSVPGHDNKMQFESSSYEGYFLASEKERDLFKLILKKEDELGDRSIMFTVQNED | 214 pM | 117 pM | 555 nM | 779 nM | 0.02 nM | 0.76 pM | 2.4 pM | 0.71 pM | 0.76 pM | 0.99 fold | 3.14 fold | 0.7 pM | 2.4 pM
